Data on eight substances can be found in patent publication US5234903A, “Chemically modified hemoglobin as an effective, stable non-immunogenic red blood cell substitute” (Enzon, Inc., priority 1990, dated 1993).

Where “and” joins values, the source holds several entries; their conditions need not be identical. Equal entries are not always repeated. Where two headings read alike, the source gives them in different places. A value given as a limit tells only on which side of the number the result lay.

The conditions of series [1]: in vivo; cited from earlier work.
The conditions of series [2]: in words; cited from earlier work.
Series [3] in a line: Methemoglobin content of PEG-Hb preparations. As to conditions: in preparation. It counts as physicochemical. From the text: (§1) The polyalkylene oxide modified hemoglobin may then be chemically characterized using methods known in the art. For example, the oxygen dissociation curve may be determined using standard techniques (for example, Imai et al., 1970, Biochim. Biophys. Acta 200: 189-196) allowing calculation of the P50 value. Additional parameters which would be desirable to measure include the methemoglobin content, the viscosity, the osmolality, the pH, and the Hill constant; the effects of changes in pH on the oxygen saturation curve may be determined as described in Bartels (1971, Blood oxygen dissociation curves: Mammals. in "Respiration and Circulation", Altman and Dittmer, Eds., Federation of American Societies for Experimental Biology, Bethesda).

The nature of series [4]: Half-life and intravascular Met-Hb in rats after 70 percent exchange transfusion. It counts as in vivo. From the text:
Blood circulating time of polyalkylene oxide-modified Hb may, for example, and not by way of limitation, be evaluated by monitoring the concentration of hemoglobin in the plasma fraction (at 540 nm) of blood samples sequentially collected following exchange transfusion with modified Hb. Hemoglobin disappearance may be plotted as a function of time.

Series [5] can be described thus: Free iron by ferrozine assay. It counts as physicochemical. Conditions: in preparation. From the text: The P50 of the above PEG-bHb was 29mm Hg (Table IV). […] Half-life of this example injected into rats after a 70 percent exchange transfusion was approximately nine hours (Table IV).
Series [6] in a line: Viscosity and colloid osmotic pressure of PEG-Hb solutions. In kind it is physicochemical.
From the text: as §1

The next series concerns rats. As to the kind of experiment: Blood pressure, heart rate and breathing in rats after 70 percent exchange transfusion. It counts as in vivo. As to conditions: 70% exchange transfusion. From the text:
Acute toxicity studies may be performed in any suitable experimental animal. Preferably, a range of exposures may be tested; for example, by evaluating animals that have received a 50 or 70 percent exchange transfusion as compared to animals that have received a 100 percent exchange transfusion. Vital signs and visual observations should be recorded, and the animals may be sacrificed after a period of time estimated to correspond to one half-life of the hemoglobin formulation being tested. Histological evaluation using standard techniques may be used to determine the presence or absence of toxic effects on tissues including lung, kidney, liver, or brain.
The results of in vivo studies, in which rats were given a 70 percent exchange transfusion of hemoglobin prepared according to Examples I-V or control (native bovine hemoglobin) are shown in Table V (bracketed numbers are values obtained in rats that were not transfused). Note that the breathing rate decreased slightly, and the blood pressure increased by at most about 30-35 percent relative to control, showing a good physiologic response to the exchange transfusion.

The nature of series [7]: Oxygen binding: P50 (partial pressure of oxygen at 50% saturation) and Hill coefficient. As to conditions: Examples I-V and control. As to the method:
Hemoglobin constitutes about 90% of the total protein in red blood cells. 100 ml of whole blood is capable of absorbing approximately 21 ml of gaseous oxygen due to the binding ability of hemoglobin. Equally important to the binding of oxygen, hemoglobin is also efficient in releasing the bound oxygen to tissues. The ability of hemoglobin to bind and release oxygen is often quantitatively expressed as the P50, the partial pressure of oxygen which results in fifty percent saturation of hemoglobin.
The resulting modified hemoglobin may then be tested to determine its P50 value so as to confirm that a clinically useful P50 has been achieved. Methods of P50 measurement include standard methods of analysis, such as, for example, methods utilizing the Hemox-Analyzer (TCS Medical Products Co., Huntingdon Valley, Pa.).
Following reduction, the hemoglobin may be reacted with an activated polyalkylene oxide under conditions which maintain the structural integrity of the oxygen binding site. In preferred embodiments of the invention, such conditions consist of a high anion concentration; in a specific embodiment this anion is chloride ion. In preferred embodiments, the chloride ion concentration is at least about 1.0M. […] According to the invention, the activated polyalkylene oxide may have one or more than one functional groups. The degree of modification for each preparation referred to in Table I is approximately 20 percent. This percent modification corresponds to about […] PEG molecules per each molecule of hemoglobin. The percent modification may be calculated according to the number of lysines modified by PEG and is based on a total of 48 surface lysines in bovine hemoglobin. The number may be determined by trinitrobenzene sulfonic acid (TNBS) assay (Habeef et al., 1966, Analyt. Biochem. 14:328-336).
as §1
Purification was carried out using a hollow-fiber ultrafiltration device with M.W. cutoff of 50 kD that is commercially available from American Fluid, Richboro, Pa. The advantage of this device relative to conventional tangential flat ultrafiltration membranes is its easy handling of viscous protein solutions such as the 6% PEG-Hb solution. Following purification, the P50 of the PEG-Hb was determined by a Hemox-Analyzer (TCS Medical Products Co., Huntington Valley, Pa.).

With “U.S. Pat. No. 4,529,719: stroma-free hemoglobin cross-linked with a bis-diaspirin ester, reacted with pyridoxal phosphate”, in [1], the Half-life result is “approximately 20 hours”.

On to “Stroma-free hemoglobin: stroma-free hemoglobin, taken out of the red blood cell microenvironment”, for which, in [2], the “P50 / oxygen binding of stroma-free hemoglobin” value was “bind oxygen too tightly (a low P50)”. The transfusion half-life entry in series [1] is “about 100 minutes”.

Regarding “Example IV: bovine hemoglobin modified with SC-PEG (MW 2000) at a molar ratio of 40:1”, in series [3], the MetHb is listed as < 5%. In addition, the Endotoxin result in the series “Endotoxin (LAL test)” is reported as “< .1 EU”. In addition, in series [4] (rats, 70% exchange transfusion), the Half-life is 13.0 h and the “Met-Hb at Half-life” value was 18.0%. In addition, the “Free Iron” value in series [5] stood at 20 µg/dL. Besides, in series [6], the “Osmotic Press.” value is listed as 22 mmHg and the Viscosity stood at 3.2 cp. Further, in the series on rats, the Breathing was determined as 83 min⁻¹, the “Heart Rate” value was determined as 432 min⁻¹ and the “Mean Arterial Press.” value turned out to be 129 mmHg. Besides, in series [7], the “Hill coeff.” value was determined as 1.8 and the p50 is 20 mmHg.

In [3], “Example V: polymerized bovine hemoglobin modified first by BSC-PEG (MW 4600) 2:1, then SC-PEG (MW 5000) 10:1” registered a MetHb of 2%. Further, the Endotoxin entry in the series “Endotoxin (LAL test)” was “< .1 EU”. Besides, the endotoxins result in the series “Endotoxin (LAL test)” (LAL test, in words) is “free of endotoxins”. In addition, in series [4] (rats, 70% exchange transfusion), the Half-life is 19 h and 18.8 h; the “Met-Hb at Half-life” value is reported as 12.0%. Moreover, in [4] (rats, 70 percent exchange transfusion), the “intravascular Met-bHb formation” value is given as 12%. Moreover, in series [6], the “Osmotic Press.” value came to 20 mmHg, the Viscosity turned out to be 4.0 cp and the colloid osmolality is recorded as 22 mm Hg. Moreover, in the series with rats, the Breathing came out at 90 min⁻¹, the “Heart Rate” value worked out at 423 min⁻¹ and the “Mean Arterial Press.” value is 97 mmHg. Moreover, the “Hill coeff.” value in series [7] came to 2.2.

Turning to “CONTROL: control (native bovine hemoglobin) [reference compound]”, the MetHb in series [3] is recorded as < 5%. Besides, in “Endotoxin (LAL test)”, the Endotoxin entry was “< .1 EU”. In addition, in series [4] (rats, 70% exchange transfusion), the Half-life came out at 1.5 h and the “Met-Hb at Half-life” value was 16.5%. Moreover, in [5], the “Free Iron” value was 24 µg/dL. In series [6], the “Osmotic Press.” value is 22 mmHg and the Viscosity came to 3.0 cp. In the series on rats, the Breathing is 100 min⁻¹, the “Heart Rate” value amounted to 304 min⁻¹ and the “Mean Arterial Press.” value came to 90 mmHg. In addition, in [7], the “Hill coeff.” value was determined as 2.4.

Consider “Example II: bovine hemoglobin deoxygenated through gas permeable membrane, conjugated to SC-PEG (5000)”, for which the MetHb in series [3] is listed as < 5%. Besides, the Endotoxin entry in the series “Endotoxin (LAL test)” is recorded as “< .1 EU”. In series [4] (rats, 70% exchange transfusion), the Half-life came out at 9.6 h and the “Met-Hb at Half-life” value was determined as 5.8%. Besides, the “Free Iron” value in [5] came out at 27 µg/dL. In addition, in series [6], the “Osmotic Press.” value is 22 mmHg and the Viscosity is listed as 4.5 cp. In addition, in the series on rats, the Breathing is 104 min⁻¹, the “Heart Rate” value is 408 min⁻¹ and the “Mean Arterial Press.” value amounted to 119 mmHg. Also, in series [7], the “Hill coeff.” value came out at 2.2 and the p50 turned out to be 24 mmHg.

“Example III: bovine hemoglobin conjugated with SC-PEG (MW 3000) at a molar ratio of 30:1”: in series [3], the MetHb is reported as < 5%. For the same substance, in the series “Endotoxin (LAL test)”, the Endotoxin entry is reported as “< .1 EU”. In addition, in [4] (rats, 70% exchange transfusion), the Half-life came to 12.4 h and the “Met-Hb at Half-life” value amounted to 13.8%. Moreover, the “Free Iron” value in [5] turned out to be 20 µg/dL. Moreover, in [6], the “Osmotic Press.” value is listed as 22 mmHg and the Viscosity was 3.8 cp. Besides, in the series with rats, the Breathing was determined as 79 min⁻¹, the “Heart Rate” value is 408 min⁻¹ and the “Mean Arterial Press.” value is listed as 132 mmHg. In series [7], the “Hill coeff.” value turned out to be 2.05 and the p50 is 25 mmHg.

In series [3], “Example I: bovine hemoglobin reduced with cysteine, modified with SC-PEG (MW 5000) at a molar ratio of 20:1” returned a MetHb of 6%. For the same substance, in the series “Endotoxin (LAL test)”, the Endotoxin entry is listed as “< .1 EU” and the endotoxins entry was “free of endotoxins”. Also, in series [4] (rat, in vivo), the “Formation of Met-bHb in rat intravasculature” value was “substantially lower than that of unmodified hemoglobin” and the “Met-Hb at Half-life” value amounted to 29.3%. This substance also displayed a Half-life in series [4] (rat, in vivo, iv) of 8.9 h. Also, in series [6], the “Osmotic Press.” value is 24 mmHg, the Viscosity is 3.6 cp and the colloid osmolality was 24 mm Hg. For the same substance, in the series with rats, the Breathing is 117 min⁻¹, the “Heart Rate” value worked out at 392 min⁻¹ and the “Mean Arterial Press.” value came out at 102 mmHg. Besides, the “Hill coeff.” value in series [7] is on record as 2.58.
